Biological target: FluA-20 mAb
Experiment: BLI

Chain of FluA-20 mAb (heavy, as listed by the source, chain 1 of 2): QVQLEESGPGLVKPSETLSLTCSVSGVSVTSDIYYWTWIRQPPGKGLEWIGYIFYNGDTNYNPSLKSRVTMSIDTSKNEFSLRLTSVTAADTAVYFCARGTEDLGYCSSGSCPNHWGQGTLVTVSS
Chain of FluA-20 mAb (light, as listed by the source, chain 2 of 2): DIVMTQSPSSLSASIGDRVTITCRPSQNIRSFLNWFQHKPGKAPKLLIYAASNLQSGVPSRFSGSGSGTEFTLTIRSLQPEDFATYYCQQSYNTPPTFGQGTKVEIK
Chain of HA220-2 (Q9NZ52 16-146): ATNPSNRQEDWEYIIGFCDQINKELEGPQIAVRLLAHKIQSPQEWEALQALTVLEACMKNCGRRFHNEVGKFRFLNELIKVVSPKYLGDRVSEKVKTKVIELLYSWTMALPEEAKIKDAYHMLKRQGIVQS

## HA220-2 (from UniProt Q9NZ52 16-146)
  Kd: 978 nM

Reference: article doi:10.1101/2025.11.04.686334
